# According to patent publication US20260152527A1 (SIGHTSTREAM BIOTHERAPEUTICS, published 2026):
# Starred links: 1 amine or outer side, 2 acyl side, 3 side chain; linkers in the order of their positions; H or OH if unused. Positions of bridges follow the written chain, without caps; N, C: chain ends. Non-standard residues stand in square brackets, D forms with d. Primed or numbered codes have the meaning given here. *: point of attachment. HyPA = 3,5-dihydroxyphenylacetic acid (N-terminal cap), O=C(Cc1cc(O)cc(O)c1)*; MoPA = (3-methoxyphenyl)acetic acid (N-terminal cap), COc1cccc(CC(=O)*)c1; dTyr(Me) = O-methyl-D-tyrosine, COc1ccc(C[C@@H](N[*:1])C(=O)[*:2])cc1; Phe(OCH3) = O-methyl-tyrosine, COc1ccc(C[C@H](N[*:1])C(=O)[*:2])cc1; Hgln = homoglutamine, NC(=O)CCC[C@H](N[*:1])C(=O)[*:2]; Trp(1-Me) = Cn1cc(C[C@H](N)C(=O)O)c2ccccc21; Benzoyl(3,5-(OH)2) = O=C(c1cc(O)cc(O)c1)*; Lys(N3) = [N-]=[N+]=NCCCC[C@H](N)C(=O)O; Orn(N3) = [N-]=[N+]=NCCC[C@H](N)C(=O)O; dPhe(4-F) = N[C@H](Cc1ccc(F)cc1)C(=O)O; Acetyl(4-pyridyl) = O=C(Cc1ccncc1)*; R8 = C=CCCCCCC[C@@](C)(N)C(=O)O; PEG8′ = polyethylene glycol-8; S5 = C=CCCC[C@](C)(N)C(=O)O; Hpra = C#CCC[C@H](N)C(=O)O; dPra = C#CC[C@@H](N)C(=O)O; Nle = CCCC[C@H](N)C(=O)O; Octanoyl = CCCCCCCC(=O)*; Pra = C#CC[C@H](N)C(=O)O
# B1: KR-063 (peptide)
# peptide: {MoPA-MoPA}-[Nle][Lys(N3)]H[dF]RW[Pra]K-NH2
# modifications: triazole 2-7; not fully specified; printed as MoPA-MoPA-Nle-[Lys(N3)-His-DPhe-Arg-Trp-Pra]-Lys-NH2
# B2: KR-065 (peptide)
# peptide: Ac-[Nle][Orn(N3)]H[dF]RW[Pra]K-NH2
# modifications: triazole 2-7; not fully specified; printed as Ac-Nle-[Orn(N3)-His-DPhe-Arg-Trp-Pra]-Lys-NH2
# B3: KR-062 (peptide)
# peptide: HyPA-[Nle][Lys(N3)]H[dF]RW[Pra]K-NH2
# modifications: triazole 2-7; not fully specified; printed as HyPA-Nle-[Lys(N3)-His-DPhe-Arg-Trp-Pra]-Lys-NH2
# B4: KR-009 (peptide)
# peptide: Ac-[Nle][Lys(N3)]H[dF]RW[Pra]-NH2
# modifications: bridge 2-7; not fully specified (bridges); printed as Ac-Nle-[Lys(N3)-His-DPhe-Arg-Trp-Pra]-NH2
# B5: KR-074 (peptide)
# peptide: {Acetyl(4-pyridyl)}-[Nle][Lys(N3)]H[dF]RW[Pra]-NH2
# modifications: triazole 2-7; not fully specified; printed as PyAA-Nle-[Lys(N3)-His-DPhe-Arg-Trp-Pra]-NH2
# B6: KR-073 (peptide)
# peptide: {Benzoyl(3,5-(OH)2)}-[Nle][Lys(N3)]H[dF]RW[Pra]-NH2
# modifications: triazole 2-7; not fully specified; printed as HyBA-Nle-[Lys(N3)-His-DPhe-Arg-Trp-Pra]-NH2
# B7: KR-008 (peptide)
# peptide: Ac-[Nle][Lys(N3)]HFRW[Pra]-NH2
# modifications: triazole 2-7
# B8: KR-071 (peptide)
# peptide: {Benzoyl(3,5-(OH)2)}-[Nle][Lys(N3)]H[dPhe(4-F)]RW[Pra][Hgln]-NH2
# modifications: triazole 2-7; not fully specified; printed as HyBA-Nle-[Lys(N3)-His-Dphe(4-F)-Arg-Trp-Pra]-Hgln-NH2
# B9: KR-017 (peptide)
# peptide: {Octanoyl-PEG8′}-GGSYSMEHFRWGKPV-NH2
# B10: KR-058 (peptide)
# peptide: Ac-[Nle][Lys(N3)]H[dTyr(Me)]RW[Pra]K-NH2
# modifications: triazole 2-7; not fully specified; printed as Ac-Nle-[Lys(N3)-His-DTyr(Me)-Arg-Trp-Pra]-Lys-NH2
# B11: KR-049 (peptide)
# peptide: Ac-[Nle][Lys(N3)]H[dPhe(4-F)]RW[Pra]-NH2
# modifications: triazole 2-7
# B12: KR-006 (peptide)
# peptide: Ac-SYSMEHFRWGK-NH2
# B13: KR-066 (peptide)
# peptide: Ac-[Nle][Lys(N3)]H[dF]RW[Hpra]K-NH2
# modifications: triazole 2-7; not fully specified; printed as Ac-Nle-[Lys(N3)-His-DPhe-Arg-Trp-HPra]-Lys-NH2
# B14: KR-067 (peptide)
# peptide: Ac-[Nle][Pra]H[dF]RW[Lys(N3)]K-NH2
# modifications: triazole 2-7; not fully specified; printed as Ac-Nle-[Pra-His-DPhe-Arg-Trp-Lys(N3)]-Lys-NH2
# B15: KR-010 (peptide)
# peptide: Ac-[Lys(N3)]EHFRWG[Pra]-NH2
# modifications: triazole 1-8
# B16: KR-057 (peptide)
# peptide: Ac-[Nle][Lys(N3)]H[dF]RW[Pra][Hgln]-NH2
# modifications: triazole 2-7; not fully specified; printed as Ac-Nle-[Lys(N3)-His-DPhe-Arg-Trp-Pra]-Hgln-NH2
# B17: KR-007 (peptide)
# peptide: Ac-EHFRWGKP-NH2
# B18: KR-002 (peptide)
# peptide: Ac-SMEHFRWGKPV-NH2
# B19: KR-060 (peptide)
# peptide: Ac-[Nle][Lys(N3)]H[dF]R[Trp(1-Me)][Pra]K-NH2
# modifications: triazole 2-7; not fully specified; printed as Ac-Nle-[Lys(N3)-His-DPhe-Arg-Trp(Me)-Pra]-Lys-NH2
# B20: KR-068 (peptide)
# peptide: Ac-[Nle][Orn(N3)]H[dF]RW[Hpra]K-NH2
# modifications: triazole 2-7; not fully specified; printed as Ac-Nle-[Orn(N3)-His-DPhe-Arg-Trp-Hpra]-Lys-NH2
# B21: KR-070 (peptide)
# peptide: Ac-[Nle][Lys(N3)]H[dF]RW[dPra]K-NH2
# modifications: triazole 2-7; not fully specified; printed as Ac-Nle-[Lys(N3)-His-DPhe-Arg-Trp-DPra]-Lys-NH2
# B22: KR-015 (peptide)
# peptide: Ac-[R8]EHFRWG[S5]-NH2
# modifications: staple 1-8
# SMILES: CC(=O)N[C@]1(C)CCCCCCC=CCCC[C@@](C)(C(N)=O)NC(=O)CNC(=O)[C@H](Cc2c[nH]c3ccccc23)NC(=O)[C@H](CCCNC(=N)N)NC(=O)[C@H](Cc2ccccc2)NC(=O)[C@H](Cc2c[nH]cn2)NC(=O)[C@H](CCC(=O)O)NC1=O
# B23: KR-072 (peptide)
# peptide: {Benzoyl(3,5-(OH)2)}-[Nle][Lys(N3)]H[dPhe(4-F)]RW[Pra]-NH2
# modifications: triazole 2-7; not fully specified; printed as HyBA-Nle-[Lys(N3)-His-Dphe(4-F)-Arg-Trp-Pra]-NH2
# B24: KR-061 (peptide)
# peptide: Ac-[Nle][Lys(N3)][Phe(OCH3)][dF]RW[Pra]K-NH2
# modifications: triazole 2-7; not fully specified; printed as Ac-Nle-[Lys(N3)-Phe(OCH3)-DPhe-Arg-Trp-Pra]-Lys-NH2
# How the values were obtained:
# Assay in all cases: cell-based or functional assay
# [1] = target: T1, human recombinant MC1R (CHO-K1 stable cell line, GenScript) (human, UniProt Q01726 1-317)
# [2] = target: human recombinant MC3R (CHO-K1/Gα15 stable cell line, GenScript) (human, UniProt P41968 1-323)
# [3] = target: T2, human recombinant MC4R (CHO-K1/Gα15 stable cell line, GenScript) (human, UniProt P32245 1-332)
# [4] = target: T3, human recombinant MC5R (CHO-K1/Ga15 stable cell line, GenScript) (human, UniProt P33032 1-325)
# [5] = target: T1, human recombinant MC1R (CHO-K1 stable …); remark: listed apart in the source
# [6] = target: T2, human recombinant MC4R (CHO-K1/Gα15 …); remark: listed apart in the source
# [7] = target: T3, human recombinant MC5R (CHO-K1/Ga15 …); remark: listed apart in the source
# T3 sequence (P33032 whole entry): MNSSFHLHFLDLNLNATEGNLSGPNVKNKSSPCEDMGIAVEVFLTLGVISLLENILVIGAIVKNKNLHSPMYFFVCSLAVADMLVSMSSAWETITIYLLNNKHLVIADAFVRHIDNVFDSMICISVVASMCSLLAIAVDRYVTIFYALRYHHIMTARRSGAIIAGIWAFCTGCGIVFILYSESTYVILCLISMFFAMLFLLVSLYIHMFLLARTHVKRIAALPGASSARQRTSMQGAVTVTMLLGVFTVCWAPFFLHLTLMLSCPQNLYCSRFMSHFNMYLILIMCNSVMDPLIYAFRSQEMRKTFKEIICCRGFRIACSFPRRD
# T1 sequence (Q01726 whole entry): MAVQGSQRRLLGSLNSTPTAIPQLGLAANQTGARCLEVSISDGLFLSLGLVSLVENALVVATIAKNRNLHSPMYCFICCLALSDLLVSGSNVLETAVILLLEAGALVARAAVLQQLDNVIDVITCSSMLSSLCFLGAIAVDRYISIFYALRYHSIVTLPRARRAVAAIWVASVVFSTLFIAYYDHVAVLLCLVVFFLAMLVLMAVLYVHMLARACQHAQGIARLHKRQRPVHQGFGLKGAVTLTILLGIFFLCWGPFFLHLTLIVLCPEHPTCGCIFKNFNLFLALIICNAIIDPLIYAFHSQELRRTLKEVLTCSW
# human recombinant MC3R (CHO-K1/Gα15 stable cell line, GenScript), sequence (P41968 whole entry): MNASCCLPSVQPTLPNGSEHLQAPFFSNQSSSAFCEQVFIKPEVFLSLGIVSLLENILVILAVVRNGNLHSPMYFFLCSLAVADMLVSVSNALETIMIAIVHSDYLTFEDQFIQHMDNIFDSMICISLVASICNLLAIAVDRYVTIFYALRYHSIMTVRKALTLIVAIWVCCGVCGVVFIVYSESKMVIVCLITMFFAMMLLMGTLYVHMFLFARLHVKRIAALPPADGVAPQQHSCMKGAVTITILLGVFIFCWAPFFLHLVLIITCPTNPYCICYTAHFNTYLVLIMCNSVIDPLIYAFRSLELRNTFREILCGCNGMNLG
# T2 sequence (P32245 whole entry): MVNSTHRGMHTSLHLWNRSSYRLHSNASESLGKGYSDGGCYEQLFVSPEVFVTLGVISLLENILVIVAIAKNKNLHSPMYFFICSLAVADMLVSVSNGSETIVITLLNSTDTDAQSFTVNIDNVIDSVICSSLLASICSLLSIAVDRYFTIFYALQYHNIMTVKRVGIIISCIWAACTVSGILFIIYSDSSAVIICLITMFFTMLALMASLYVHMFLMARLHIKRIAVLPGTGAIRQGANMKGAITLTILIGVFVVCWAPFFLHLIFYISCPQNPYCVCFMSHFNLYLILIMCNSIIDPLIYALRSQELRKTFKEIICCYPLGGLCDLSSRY
binder,measurement,setting,value
B1,MC1R IC50,[1],0.05 nM
same,MC3R IC50,[2],62.8 nM
same,MC4R IC50,[3],67.1 nM
same,MC5R IC50,[4],99.6 nM
B2,MC1R IC50,[1],0.027 nM
same,MC3R IC50,[2],91.6 nM
same,MC4R IC50,[3],36 nM
same,MC5R IC50,[4],70.2 nM
B3,MC1R IC50,[1],0.03 nM
same,MC3R IC50,[2],13 nM
same,MC4R IC50,[3],44.4 nM
same,MC5R IC50,[4],167 nM
B4,MC1R IC50,[1],0.0109 nM
same,MC4R IC50,[3],45.7 nM
same,MC5R IC50,[4],140 nM
same,EC50(nM)-MC1R,[5],0.011 nM
same,EC50(nM)-MC4R,[6],45.7 nM
same,EC50(nM)-MC5R,[7],140 nM
B5,MC1R IC50,[1],0.023 nM
same,MC3R IC50,[2],165 nM
same,MC4R IC50,[3],20.2 nM
same,MC5R IC50,[4],154 nM
B6,MC1R IC50,[1],0.0041 nM
same,MC4R IC50,[3],13.9 nM
same,MC5R IC50,[4],134 nM
same,EC50(nM)-MC1R,[5],0.0041 nM
same,EC50(nM)-MC4R,[6],13.9 nM
same,EC50(nM)-MC5R,[7],134 nM
B7,MC1R IC50,[1],0.4 nM
same,MC3R IC50,[2],1110 nM
same,MC4R IC50,[3],74.5 nM
same,MC5R IC50,[4],> 10000 nM
B8,MC1R IC50,[1],0.0023 nM
same,MC4R IC50,[3],103 nM
same,MC5R IC50,[4],73.9 nM
same,EC50(nM)-MC1R,[5],0.0023 nM
same,EC50(nM)-MC4R,[6],103 nM
same,EC50(nM)-MC5R,[7],73.9 nM
B9,MC1R IC50,[1],0.77 nM
same,MC3R IC50,[2],310 nM
same,MC4R IC50,[3],139 nM
same,MC5R IC50,[4],210 nM
B10,MC1R IC50,[1],2.68 nM
same,MC3R IC50,[2],> 50000 nM
same,MC4R IC50,[3],122 nM
same,MC5R IC50,[4],195 nM
B11,MC1R IC50,[1],0.019 nM
same,MC4R IC50,[3],16.1 nM
same,MC5R IC50,[4],25.2 nM
same,EC50(nM)-MC1R,[5],0.019 nM
same,EC50(nM)-MC4R,[6],16.1 nM
same,EC50(nM)-MC5R,[7],25.2 nM
B12,MC1R IC50,[1],0.11 nM
same,MC3R IC50,[2],224 nM
same,MC4R IC50,[3],80.9 nM
same,MC5R IC50,[4],122 nM
B13,MC1R IC50,[1],0.0047 nM
same,MC3R IC50,[2],39.9 nM
same,MC4R IC50,[3],75.1 nM
same,MC5R IC50,[4],64 nM
B14,MC1R IC50,[1],0.11 nM
same,MC3R IC50,[2],66.2 nM
same,MC4R IC50,[3],28.7 nM
same,MC5R IC50,[4],79.7 nM
B15,MC1R IC50,[1],170 nM
same,MC3R IC50,[2],13600 nM
same,MC4R IC50,[3],452 nM
same,MC5R IC50,[4],> 10000 nM
B16,MC1R IC50,[1],0.024 nM
same,MC3R IC50,[2],73.3 nM
same,MC4R IC50,[3],33.5 nM
same,MC5R IC50,[4],107 nM
B17,MC1R IC50,[1],1.99 nM
same,MC3R IC50,[2],1400 nM
same,MC4R IC50,[3],16.4 nM
same,MC5R IC50,[4],> 10000 nM
B18,MC1R IC50,[1],0.44 nM
same,MC3R IC50,[2],176 nM
same,MC4R IC50,[3],34.9 nM
same,MC5R IC50,[4],243 nM
B19,MC1R IC50,[1],0.79 nM
same,MC3R IC50,[2],260 nM
same,MC4R IC50,[3],67.6 nM
same,MC5R IC50,[4],319 nM
B20,MC1R IC50,[1],0.04 nM
same,MC3R IC50,[2],27.6 nM
same,MC4R IC50,[3],21.8 nM
same,MC5R IC50,[4],40.4 nM
B21,MC1R IC50,[1],11.8 nM
same,MC3R IC50,[2],1630 nM
same,MC4R IC50,[3],84.1 nM
same,MC5R IC50,[4],376 nM
B22,MC1R IC50,[1],25.8 nM
same,MC3R IC50,[2],3000 nM
same,MC4R IC50,[3],485 nM
same,MC5R IC50,[4],> 10000 nM
B23,MC1R IC50,[1],0.0019 nM
same,MC4R IC50,[3],98.6 nM
same,MC5R IC50,[4],78 nM
same,EC50(nM)-MC1R,[5],0.0019 nM
same,EC50(nM)-MC4R,[6],98.6 nM
same,EC50(nM)-MC5R,[7],78 nM
B24,MC1R IC50,[1],28 nM
same,MC3R IC50,[2],51.1 nM
same,MC4R IC50,[3],101 nM
same,MC5R IC50,[4],150 nM
